Literature values, collected in PMC8773166.

Target: calmodulin (UniProt P0DP23)

- Kd: 200 nM
Substance: NCX1 XIP peptide XIP (from UniProt P32418)
